B1: HDV Ribozyme (parent)
chain: GGCCGGCAUGGUCCCAGCCUCCUCGCUGGCGCCGGCUGGGCAACAUUCCGAGGGGACCGUCCCCUCGGUAAUGGCGAAUGGGACCCA

Variants of: B1
Experiment: self-cleavage, relative activity (ratio to wild type); higher = more cleavage; co-transcriptional

Variant	self-cleavage
C15U G52U	1.21
C15U G52C	1.03
A16U C48A	1.07
A16U C48U	1.07
A16G A71C	0.575
A16G A71U	1.01
A16C G29C	0
G17A A45C	0.415
G17A C30U	0.986
A16C U79C	0.8
A16C U79A	1.06
C15G G35C	0.0791
C15G G35A	0.196
A16U U20C	0.277
C15A G68U	0.309
C15A C58A	0.332
A16C C75A	0.133
A16C C75U	0.138
A16U G34A	0.166
A16U G34C	0.369
A16U U72A	0.554
C15A G38A	0.0978
A16C G50U	0.692
A16G G81C	0.369

Variant	self-cleavage
A16G G81U	0.489
C15A C26A	0.529
C15A C26G	0.415
A16G C64U	0.942
C15A C75A	0.115
C15U C21G	0.0898
A16C U23C	0.87
A16G G35A	0.696
A16C C48A	0.987
A16U G59A	0.967
A16C C21G	0.119
A16C C21A	0.0437
A16C C21U	0.199
A16U G40A	0.928
A16U C21U	0.122
G17A C21G	0.0415
C15G C84A	0.519
A16G A87U	0.939
A16G A87G	0.892
C15G C62U	0.665
A16C A83G	0.877
C15G C85G	0.196
C15G C85U	0.453
C15A G25A	0.0504

Variant	self-cleavage
C15U U79C	0.849
C15U U79A	1.11
A16C G31C	0.0639
A16C C58A	0.582
C15G A87U	0.475
A16G A56G	0.864
A16G A43C	0.277
C15A C86U	0.831
C15A C86G	0.748
C15G G28U	0.0437
A16G C44G	0.767
C15U G53A	0.912
C15G C86G	0.317
C15U A78C	0.166
C15G A78U	0.375
C15G A78C	0
C15U G17U	0.415
G17A A87U	0.708
C15G A56G	0.712
C15G C41G	0.289
A16C U72A	0.437
C15G U37A	0
C15G U37G	0
C15G U37C	0.875

Variant	self-cleavage
A16G G67A	0.886
A16G G67U	0.831
A16U G67A	0.988
A16C G59C	0.974
A16C G53C	0.475
A16C G53A	0.674
C15A C63G	0.539
C15U G28A	0.0692
A16U U79G	1.13
A16G A70G	1.33
A16G A70C	1.04
A16G G54C	1.08
A16U C19A	0.285
A16G G76U	1.29
C15G G53A	0.353
C15A C49A	0.974
C15A G40U	0.352
C15A G40C	0.0875
G17A A71G	0.675
G17A A71U	0.499
C15A U27G	0.653
C15G U20A	0.128
C15U A43G	0.138
A16U C24U	0.314

Variant	self-cleavage
C15U U69G	0.858
A16U A70U	0.764
A16C C18U	0.375
A16G U60C	1.14
A16U C66U	1.05
C15G G34U	0.19
C15A C44G	0.431
C15A C44U	0.426
C15G G52A	0.807
C15G G81U	0.297
C15U A16G	1.05
C15U A16C	1.33
C15A G73U	0.095
C15U C19U	0.0767
C15U C19G	0.0997
A16U A87G	0.968
A16U A87C	1.04
C15A C61U	0.752
A16G G28A	0.131
C15U C44U	0.707
C15G C19G	0
C15G U60G	0.712
C15U C49U	0.997
C15G C32U	0.437

Variant	self-cleavage
C15G G82U	0.229
C15A C48A	0.597
A16U G55U	1.09
A16U G55A	0.784
A16G C41U	1.22
A16U C64U	0.866
A16U G52C	0.696
G17A A83C	0.665
C15G A70G	0.554
A16G U47A	1.16
A16G U47C	0.962
C15G C24A	0.482
C15A G76C	0.767
A16C A42C	0.192
A16G C63G	0.767
A16G C32U	0.811
A16G C32G	0.145
A16G C32A	0.107
C15G A83G	0.185
A16U G53C	1.01
A16G G40C	0.135
A16U U65A	0.831
A16U U65C	0.965
C15G U46A	0.399

Variant	self-cleavage
C15G G55U	0.677
A16U U23C	0.831
C15U U72G	0.665
G17A A43U	0.237
A16U C44U	0.6
A16U C44A	0.598
C15G U69C	0.65
A16G C84A	0.7
A16G C84U	0.525
A16C G28U	0.0437
C15G C22A	0.0504
C15G C22G	0.119
A16U C32A	0.177
A16U C32U	0.727
C15U G55C	0.895
C15U G55A	0.889
C15G A43G	0.237
C15A C84U	0.665
A16U C75G	0.119
C15A G82A	0.369
C15A G82C	0.415
C15A C36U	0.253
C15A C36A	0.0692

— the RNAGym collection of RNA variant scans (doi:10.7554/elife.80360)
